1 molecule from patent publication US20210348149A1 (Alexion, published 2021) can be followed below.

The target of the assay is T1, r-Antidote (two-chain polypeptide, SEQ ID NO: 3); processed product of the precursor SEQ ID NO: 2 after … (human, UniProt P00742 80-179); P00742 235-488, in certain production batches: glycosylation at Thr249; in certain production batches: glycosylation at Ser56, Ser72, Ser76 and Thr82; (3R)-3-hydroxyAsp at Asp29).
T1 construct: Light and heavy chain are joined by a disulfide bond, Cys98 of the light chain to Cys108 of the heavy chain; also called fXa antidote; fXa derivative
T1 sequence (P00742 other isoform, or with tags, fused parts or gaps limits assumed, chain 1 of 2): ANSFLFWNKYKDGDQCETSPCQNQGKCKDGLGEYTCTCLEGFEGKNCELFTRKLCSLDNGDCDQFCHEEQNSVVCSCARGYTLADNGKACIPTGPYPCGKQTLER
T1 sequence (P00742 235-488 S419A limits assumed, chain 2 of 2): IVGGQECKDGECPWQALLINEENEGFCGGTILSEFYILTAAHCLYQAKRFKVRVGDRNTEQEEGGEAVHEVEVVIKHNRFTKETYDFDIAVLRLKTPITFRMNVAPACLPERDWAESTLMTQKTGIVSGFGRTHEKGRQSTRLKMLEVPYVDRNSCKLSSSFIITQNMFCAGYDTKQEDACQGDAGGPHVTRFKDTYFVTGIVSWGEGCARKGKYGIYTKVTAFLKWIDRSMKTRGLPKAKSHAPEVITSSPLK
Nature of the assay: affinity chromatography with immobilised STI ligand (Example 2). How it is done:
An affinity chromatograph was developed for high-volume extraction of the antidote. The affinity ligand included Kunitz trypsin inhibitor (21 kDa; pI=4.5) extracted from whole soybean or flour. The soybean trypsin inhibitor (STI) forms 1:1 complex with the antidote. A non-competitive inhibitor elution condition was identified for scalability and compatibility, which included 25 mM Na-acetate, 1M Arginine, at pH 5.2.
Affinity column chromatography was performed using Capto STI resin at ambient temperature. During the load phase, the product bound to the resin while contaminants flew through. The product was recovered by disrupting protein interactions with a high concentration of arginine in the elution buffer. Prior to use, the column was rinsed with water for injection (WFI), cleaned with 100 mM Phosphoric Acid pH 3.0, and rinsed with WFI. The column was initially pre-equilibrated with pre-equilibration buffer (20 mM Tris-HCl, pH 7.4), then equilibrated with equilibration buffer (20 mM Tris-HCl, 200 mM NaCl, pH 7.4), and once the pH and conductivity of the column were within specification, it was loaded with Triton-X 100 treated clarified harvest (HCCF). Each cycle of HCCF material was transferred from its viral inactivation hold tank directly to the column.

B1: soybean trypsin inhibitor (STI), Kunitz trypsin inhibitor (21 kDa; pI=4.5) extracted from whole soybean or flour (other, soybean (Glycine max), UniProt P01070 25-205, looked up)
chain: DFVLDNEGNPLENGGTYYILSDITAFGGIRAAPTGNERCPLTVVQSRNELDKGIGTIISSPYRIRFIAEGHPLSLKFDSFAVIMLCVGIPTEWSVVEDLPEGPAVKIGENKDAMDGWFRLERVSDDEFNNYKLVFCPQQAEDDKCGDIGISIDHDDGTRRLVVSKNKPLVVQFQKLDKESL
notes: also called STI ligand
For B1, the binding result is “binds”.
